Publication PMC11187625, “New Labeled PET Analogues Enable the Functional Screening and Characterization of PET-Degrading Enzymes” (ACS Sustainable Chemistry & Engineering, 2024)

How the values were obtained:
Test in all cases: fluorescence, 4-mU release
Conditions in all cases: 0.1 M phosphate pH 7, 30 °C, 5% DMSO
[1] = substrate: CCOCCOC(=O)c1ccc(C(=O)Oc2ccc3c(C)cc(=O)oc3c2)cc1; type: biochemical, Thermothelomyces thermophilus
Description: (§1) fluorescence, 4-mU release on StGE2 (glucuronoyl esterase)

[2] = substrate: COC(=O)c1ccc(C(=O)Oc2ccc3c(C)cc(=O)oc3c2)cc1; type: biochemical, Thermothelomyces thermophilus
Description: as §1

[3] = substrate: CCOCCOC(=O)c1ccc(C(=O)Oc2ccc3c(C)cc(=O)oc3c2)cc1; type: biochemical, Pseudideonella sakaiensis
Description: (§2) fluorescence, 4-mU release on IsPETase

[4] = substrate: COC(=O)c1ccc(C(=O)OCCOC(=O)c2ccc(C(=O)Oc3ccc4c(C)cc(=O)oc4c3)cc2)cc1; type: biochemical, Pseudideonella sakaiensis
Description: as §2

[5] = substrate: COC(=O)c1ccc(C(=O)Oc2ccc3c(C)cc(=O)oc3c2)cc1; type: biochemical, Pseudideonella sakaiensis
Description: as §2

[6] = substrate: CCOCCOC(=O)c1ccc(C(=O)Oc2ccc3c(C)cc(=O)oc3c2)cc1; type: biochemical, unidentified prokaryotic organism
Description: (§3) fluorescence, 4-mU release on LCC^ICCG (leaf-branch compost cutinase ICCG variant)

[7] = substrate: COC(=O)c1ccc(C(=O)OCCOC(=O)c2ccc(C(=O)Oc3ccc4c(C)cc(=O)oc4c3)cc2)cc1; type: biochemical, unidentified prokaryotic organism
Description: as §3

[8] = substrate: COC(=O)c1ccc(C(=O)Oc2ccc3c(C)cc(=O)oc3c2)cc1; type: biochemical, unidentified prokaryotic organism
Description: as §3

B1: StGE2 (glucuronoyl esterase) (Thermothelomyces thermophilus ATCC 42464) (protein)
chain: APMNHIFERQDTCSVSDNYPTVNSAKLPDPFTTASGEKVTTKDQFECRRAEINKILQQYELGEYPGPPDSVEASLSGNSITVRVTVGSKSISFSASIRKPSGAGPFPAIIGIGGASIPIPSNVATITFNNDEFGAQMGSGSRGQGKFYDLFGRDHSAGSLTAWAWGVDRLIDGLEQVGAQASGIDTKRLGVTGCSRNGKGAFITGALVDRIALTIPQESGAGGAACWRISDQQKAAGANIQTAAQIITENPWFSRNFDPHVNSITSVPQDHHLLAALIVPRGLAVFENNIDWLGPVSTTGCMAAGRLIYKAYGVPNNMGFSLVGGHNHCQFPSSQNQDLNSYINYFLLGQGSPSGVEHSDVNVNVAEWAPWGAGAPTLA
notes: recombinant, expressed in Komagataella phaffii (Pichia pastoris), purified
For B1, the Km [1] was 4.7 ± 0.4 µM and the Km [2] was 0.7 ± 0.1 µM.

B2: IsPETase (Pseudideonella sakaiensis) (protein)
chain: QTNPYARGPNPTAASLEASAGPFTVRSFTVSRPSGYGAGTVYYPTNAGGTVGAIAIVPGYTARQSSIKWWGPRLASHGFVVITIDTNSTLDQPSSRSSQQMAALRQVASLNGTSSSPIYGKVDTARMGVMGWSMGGGGSLISAANNPSLKAAAPQAPWDSSTNFSSVTVPTLIFACENDSIAPVNSSALPIYDSMSRNAKQFLEINGGSHSCANSGNSNQALIGKKGVAWMKRFMDNDTRYSTFACENPNSTRVSDFRTANCS
notes: recombinant, pET-22b(+), E. coli BL21, intracellular fraction, purified
B2 gave a Km [3] of 9.3 ± 0.8 µM, a kcat [3] of 3.8e-05 ± 1e-06 s⁻¹ and a Km [4] of 34.1 ± 5.5 µM. The Km [5] was 6.7 ± 0.6 µM and the kcat [5] was 5e-05 ± 2e-06 s⁻¹.

B3: LCC^ICCG (leaf-branch compost cutinase ICCG variant) (unidentified prokaryotic organism; D238C/F243I/S283C/Y127G) (protein)
chain: QSNPYQRGPNPTRSALTADGPFSVATYTVSRLSVSGFGGGVIYYPTGTSLTFGGIAMSPGYTADASSLAWLGRRLASHGFVVLVINTNSRFDGPDSRASQLSAALNYLRTSSPSAVRARLDANRLAVAGHSMGGGGTLRIAEQNPSLKAAVPLTPWHTDKTFNTSVPVLIVGAEADTVAPVSQHAIPFYQNLPSTTPKVYVELCNASHIAPNSNNAAISVYTISWMKLWVDNDTRYRQFLCNVNDPALCDFRTNNRHCQ
notes: recombinant engineered variant ICCG, pET-22b(+), E. coli BL21, intracellular fraction, purified
With B3 the Km [6] was 7.2 ± 0.7 µM, the kcat [6] was 5.8e-05 ± 2e-06 s⁻¹ and the Km [7] was 21.7 ± 2.8 µM. For the same protein, the kcat [7] was 1.3e-05 ± 1e-06 s⁻¹, the Km [8] was 1.6 ± 0.1 µM and the kcat [8] was 3.4e-05 ± 1e-06 s⁻¹.
